T1: mouse CD33 Fc fusion protein (mouse, UniProt Q63994 18-240, limits assumed)
T1 construct: also called mCD33-Fc
T1 sequence: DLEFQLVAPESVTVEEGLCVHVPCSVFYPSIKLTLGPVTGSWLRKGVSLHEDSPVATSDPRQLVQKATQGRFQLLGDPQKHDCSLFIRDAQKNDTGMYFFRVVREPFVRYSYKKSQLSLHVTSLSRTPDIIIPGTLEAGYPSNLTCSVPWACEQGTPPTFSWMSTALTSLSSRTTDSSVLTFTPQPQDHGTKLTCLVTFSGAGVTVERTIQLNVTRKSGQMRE


Experiments:
human CD33 [1] = target: T2, human CD33 (human, UniProt P20138 18-364); assay: flow cytometry, human primary macrophages;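 also: binding of CD33 antibodies at 10 µg/ml to human primary macrophages, 1 h on ice, detected with PE-labelled secondary antibody by flow cytometry, reported as MFI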
T2 construct: CD33 on human primary dendritic cells, macrophages, monocytes and T cells and on CHO cells expressing recombinant human CD33; also called Siglec-3; hCD33
T2 sequence (P20138 18-364): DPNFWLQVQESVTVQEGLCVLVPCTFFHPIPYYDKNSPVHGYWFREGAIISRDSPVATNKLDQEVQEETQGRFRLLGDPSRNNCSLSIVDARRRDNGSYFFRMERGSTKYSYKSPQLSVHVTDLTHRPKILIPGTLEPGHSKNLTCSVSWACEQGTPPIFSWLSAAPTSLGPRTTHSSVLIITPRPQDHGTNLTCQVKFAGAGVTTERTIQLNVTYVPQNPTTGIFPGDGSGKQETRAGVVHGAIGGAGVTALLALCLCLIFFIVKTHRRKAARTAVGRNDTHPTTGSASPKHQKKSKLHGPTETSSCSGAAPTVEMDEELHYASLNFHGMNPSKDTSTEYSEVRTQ

human CD33 [2] = target: T2, human CD33; assay: flow cytometry, human primary T cells;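 also: binding of anti-CD33 antibodies at 10 ug/ml to human primary T cells, 1 h on ice, detected with PE-labelled secondary antibody, read as flow cytometry MFI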
[3] = target: T3, human monomeric His tagged CD33 protein (human, UniProt P20138 18-259); assay: ForteBio BLI or MSD-SET, IgG, monomeric antigen;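 also: BLI: antibodies captured on AHQ sensors, 100 nM antigen association 5 min, dissociation 5 min, 1:1 fit. MSD-SET: antigen fixed at 50 pM, antibody titrated, quadratic fit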
T3 construct: also called hCD33-His
T3 sequence (P20138 18-259 limits assumed): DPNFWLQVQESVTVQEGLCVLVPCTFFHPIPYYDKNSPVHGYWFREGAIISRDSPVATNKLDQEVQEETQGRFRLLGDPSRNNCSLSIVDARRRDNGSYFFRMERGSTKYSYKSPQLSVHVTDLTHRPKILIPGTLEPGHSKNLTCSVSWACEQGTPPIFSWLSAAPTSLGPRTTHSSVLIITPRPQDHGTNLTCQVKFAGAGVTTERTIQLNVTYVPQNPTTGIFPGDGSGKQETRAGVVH
Protocol: The binding affinity of each anti-CD33 antibody was determined by measuring their KD by ForteBio or MSD-SET. […] Briefly, ForteBio affinity measurements were performed by loading IgGs on-line onto AHQ sensors. Sensors were equilibrated off-line in assay buffer for 30 min and then monitored on-line for 60 seconds for baseline establishment. Sensors with loaded IgGs were exposed to 100 nM antigen for 5 minutes, then transferred to assay buffer for 5 min for off-rate measurement. Kinetics were analyzed using the 1:1 binding model.
Solution equilibrium titrations (SET) were performed in PBS+0.1% IgG-Free BSA (PBSF) with antigen held constant at 50 pM and incubated with 3-to 5-fold serial dilutions of antibody starting at 10 nM. Antibodies (20 nM in PBS) were coated onto standard bind MSD-ECL plates overnight at 4° C. or at room temperature for 30 min. Plates were then blocked for 30 min with shaking at 700 rpm, followed by three washes with wash buffer (PBSF+0.05% Tween 20). SET samples were applied and incubated on the plates for 150s with shaking at 700 rpm followed by one wash. Antigen captured on a plate was detected with 250 ng/mL sulfotag-labeled streptavidin in PBSF by incubation on the plate for 3 min. The plates were washed three times with wash buffer and then read on the MSD Sector Imager 2400 instrument using 1× Read Buffer T with surfactant. The percent free antigen was plotted as a function of titrated antibody in Prism and fit to a quadratic equation to extract the KD. To improve throughput, liquid handling robots were used throughout MSD-SET experiments, including SET sample preparation.

[4] = target: T4, human CD33 Fc fusion protein (human, UniProt P20138 18-259); assay: ForteBio BLI or MSD-SET, IgG, avid;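 also: Anti-CD33 IgG affinity by BLI, IgG captured on AHQ sensors with antigen in solution and a one-to-one kinetic fit, or by MSD solution equilibrium titration with quadratic fit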
T4 construct: also called hCD33-Fc; human CD33/Fc chimera (R&D Systems)
T4 sequence (P20138 18-259 limits assumed): as above

[5] = target: T1, mouse CD33 Fc fusion protein; assay: ForteBio BLI or MSD-SET
[6] = target: T4, human CD33 Fc fusion protein; assay: RBC adhesion to plate-bound CD33-Fc; antibody 1.0 ug/ml;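 also: red blood cells adhering to plate-coated CD33-Fc after 1 h antibody pretreatment, then 1 h at room temperature, bound cells read as peroxidase activity after lysis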
Protocol: (§1) Briefly, 5 ug/ml CD33-Fc was coated overnight at RT in 96 well Immunolon plates, then washed with PBS, blocked for one hour with binding buffer (PBS containing %0.25 BSA 1 mM CaCl₂). CD33 antibodies (0.5 ug/ml or 1.0 ug/ml) or Fabs (25 ug/ml) were bound for one hour at RT with gentle rocking. After removal of unbound antibody, red blood cells were added to each well at a concentration of 3.0×10⁶ cells per ml and incubated at RT for one hour. Unbound RBCs were then carefully washed off 3× with PBS, and water was added to each well for hypotonic lysis of bound RBCs. The plate was transferred to −80° C. for 10 minutes, followed by 37° C. for 15 minutes. Bound RBCs were detected by peroxidase activity, followed by 2N sulfuric acid to stop the reaction.

human CD33 [7] = target: T2, human CD33; assay: flow cytometry, human primary dendritic cells;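 also: binding of anti-CD33 antibodies (10 ug/ml, 1 h on ice) to human primary dendritic cells, detected with a PE-labelled secondary antibody, reported as flow cytometry MFI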
human CD33 [8] = target: T2, human CD33; assay: flow cytometry, human primary monocytes; design: reference not given here;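 also: binding of anti-CD33 antibodies at 10 ug/ml to human primary monocytes, 1 h on ice, detected by PE-labelled secondary antibody, flow cytometry readout as mean fluorescence intensity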
human CD33 [9] = target: T2, human CD33; assay: cell-based or functional assay
[10] = target: T4, human CD33 Fc fusion protein; assay: RBC adhesion to plate-bound CD33-Fc; antibody 0.5 ug/ml;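 also: Plate-coated CD33-Fc preincubated 1 h with antibody, then red blood cells added for 1 h at room temperature, adherent cells lysed and quantified via peroxidase activity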
Protocol: as §1

Binder	Macrophage MFI (human CD33 [1])	T cell MFI (human CD33 [2])	Kd [3]	Kd [4]	binding result [5]	Percent RBC Binding to CD33 [6]	DC MFI (human CD33 [7])	Monocyte MFI (human CD33 [8])	Percent CD33 Surface Expression, DC % CD33 (human CD33 [9])	Percent CD33 Surface Expression, Macrophage % CD33 (human CD33 [9])	Percent CD33 Surface Expression, Monocyte % CD33 (human CD33 [9])	Percent RBC Binding to CD33 [10]
C-37 (antibody, V domains shown, human IgG1) VH: QLQLQESGPGLVKPSETLSLTCTVSGGSISSSSYYWGWIRQPPGKGLEWIGSISYSGSTYYNPSLKSRVTISVDTSKNQFSLKLSSVTAADTAVYYCAREHRAADAGSNVWGQGTMVTVSS VL: not shown	952	213	2.72 nM	0.409 nM	no binding (tested: 100 nM)	5.6%	1840	203	19%	55.3%	32.2%	11%
C-67 (antibody, V domains shown, human IgG1) VH: QLQLQESGPGLVKPSETLSLTCTVSGGSISSSSYYWGWIRQPPGKGLEWIGSIYYSGSTYYNPSLKSRVTISVDTSKNQFSLKLSSVTAADTAVYYCAREVSGTRHGMDVWGQGTTVTVSS VL: not shown	831	209	5.33 nM	1.19 nM	no binding (tested: 100 nM)	10.7%	1420	151	17%	51%	23.8%	22.9%
C-1 (antibody, V domains shown, full-length human IgG1) VH: not shown VL: EIVLTQSPATLSLSPGERATLSCRASQSVSSYLAWYQQKPGQAPRLLIYDASNRATGIPARFSGSGSGTDFTLTISSLEPEDFAVYYCQQYYFWPLTFGGGTKVEIK	924	461	9.69 nM	2.53 nM	no binding (tested: 100 nM)	91.5%	1440	177	80.9%	94.4%	100%	93.2%
C-63 (antibody, V domains shown, human IgG1) VH: QVQLVQSGAEVKKPGSSVKVSCKASGGTFSSYAISWVRQAPGQGLEWMGSIIPIFGTANYAQKFQGRVTITADESTSTAYMELSSLRSEDTAVYYCARDLGGQYYGSHHYWGQGTLVTVSS VL: EIVLTQSPATLSVSPGERATLSCRASQSVGSNLAWYQQKPGQAPRLLIYGASTRATGIPARFSGSGSGTEFTLTISSLQSEDFAVYYCQQYNAWPLTFGGGTKVEIK	872	28.8	–	4.01 nM	no binding (tested: 100 nM)	5.66%	1200	117	56.8%	–	75.6%	17.1%
C-62 (antibody, V domains shown, human IgG1) VH: not shown VL: EIVMTQSPATLSVSPGERATLSCRASQSVSSNLAWYQQKPGQAPRLLIYGASTRATGIPARFSGSGSGTEFTLTISSLQSEDFAVYYCQQFSNWPLTFGGGTKVEIK	520	96.4	23.6 nM	4.07 nM	no binding (tested: 100 nM)	84%	1660	197	78.4%	–	87.4%	95.7%
C-39 (antibody, V domains shown, human IgG1) VH: QLQLQESGPGLVKPSETLSLTCTVSGGSISSSSYYWGWIRQPPGKGLEWIGSIYYSGSTYYNPSLKSRVTISVDTSKNQFSLKLSSVTAADTAVYYCAREGVRGMDVWGQGTTVTVSS VL: EIVLTQSPGTLSLSPGERATLSCRASQSVSSSYLAWYQQKPGQAPRLLIYGASSRATGIPDRFSGSGSGTDFTLTISRLEPEDFAVYYCQQFAFLPPTFGGGTKVEIK	802	1210	9.97 nM	2.06 nM	no binding (tested: 100 nM)	5.11%	2000	181	22.8%	46.5%	27.2%	12.5%
C-40 (antibody, V domains shown, human IgG1) VH: EVQLVESGGGLVQPGGSLRLSCAASGFTFSSYWMSWVRQAPGKGLEWVANIKQDGSEKYYVDSVKGRFTISRDNAKNSLYLQMNSLRAEDTAVYYCAREGGYVGHGMDVWGQGTTVTVSS VL: not shown	663	210	10.6 nM	1.86 nM	no binding (tested: 100 nM)	12.1%	1470	76	17.8%	35.2%	24.2%	19.7%
C-38 (antibody, V domains shown, human IgG1) VH: QLQLQESGPGLVKPSETLSLTCTVSGGSISSSSYYWGWIRQPPGKGLEWIGSIYYSGSTYYNPSLKSRVTISVDTSKNQFSLKLSSVTAADTAVYYCAREATAAADHPGMDVWGQGTTVTVSS VL: DIQMTQSPSSLSASVGDRVTITCQASQDITNYLNWYQQKPGKAPKLLIYDASNLETGVPSRFSGSRSGTDFTFTISSLQPEDIATYYCQQYHDFPTFGGGTKVEIK	904	267	5.25 nM	1.28 nM	no binding (tested: 100 nM)	10.3%	1740	166	17.9%	49.1%	27.6%	15.6%
